{"source": "paper doi:10.1101/2024.01.26.576347", "key": {"[1]": {"target": "α-tubulin (human (endogenous in VTC-037 GSCs)) (UniProt P68363)", "sequence (P68363 whole entry)": "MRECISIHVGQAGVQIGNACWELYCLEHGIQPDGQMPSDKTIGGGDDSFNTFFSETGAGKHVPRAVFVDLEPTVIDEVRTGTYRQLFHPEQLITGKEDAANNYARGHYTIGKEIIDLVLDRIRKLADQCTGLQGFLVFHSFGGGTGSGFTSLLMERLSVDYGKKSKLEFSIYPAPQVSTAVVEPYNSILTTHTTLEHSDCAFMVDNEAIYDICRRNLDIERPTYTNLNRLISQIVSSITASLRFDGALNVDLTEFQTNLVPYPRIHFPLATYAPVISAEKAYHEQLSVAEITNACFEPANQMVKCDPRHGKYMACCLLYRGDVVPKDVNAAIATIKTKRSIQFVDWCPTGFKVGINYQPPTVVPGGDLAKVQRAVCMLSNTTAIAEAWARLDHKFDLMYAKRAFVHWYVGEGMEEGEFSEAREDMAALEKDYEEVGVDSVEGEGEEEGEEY", "assay": "cellular thermal shift assay"}, "[2]": {"target": "β-tubulin (human (endogenous in VTC-001 and VTC-037 GSCs)) (UniProt P07437)", "assay": "cellular thermal shift assay"}}, "data": [{"substance": "JM2 (juxtamembrane 2), Cx43 mimetic peptide (from UniProt P17302 231-245)", "values": [{"measurement": "EC50", "setting": "[1]", "value": 8.4, "unit": "nM"}, {"measurement": "EC50", "setting": "[2]", "value": 7.9, "unit": "nM"}]}]}
